Measurements as given in the Human Domainome abundance scans (Beltran et al. 2025).
± gives the uncertainty stated by the source.

B1: F-BAR and double SH3 domains protein 1, residues 467 to 528; numbered along this chain, Q86WN1 (parent)
chain: RALPCPAHVVFRYQAGREDELTITEGEWLEVIEEGDADEWVKARNQHGEVGFVPERYLNFPD

Variants of: B1
Experiment: abundance fitness (aPCA) (normalised: wild type 0, dead -1); higher = more abundant; growth selection in yeast, the domain comes from the species named
Conditions: Homo sapiens

In order of falling abundance fitness:
1. G16Y  0.497 ± 0.18
2. G16E  0.165 ± 0.12
3. G16N  0.113 ± 0.13
4. R17N  0.099 ± 0.13
5. T22N  0.09 ± 0.13
6. G16K  0.077 ± 0.074
7. T22S  0.069 ± 0.051
8. R17C  0.064 ± 0.067
9. R17H  0.043 ± 0.11
10. G16C  0.035 ± 0.087
11. G16M  0.026 ± 0.071
12. G16A  0.024 ± 0.066
13. R17K  0.021 ± 0.077
14. G16S  0.019 ± 0.055
15. G16Q  0.019 ± 0.083
16. I32F  0.018 ± 0.063
17. Q14N  0.013 ± 0.1
18. G16T  -0.012 ± 0.1
19. R17S  -0.016 ± 0.06
20. Q14F  -0.018 ± 0.056
21. E30Q  -0.02 ± 0.066
22. R17E  -0.02 ± 0.083
23. Q14E  -0.024 ± 0.064
24. G16H  -0.027 ± 0.091
25. R17A  -0.032 ± 0.068
26. E27D  -0.047 ± 0.16
27. E30T  -0.055 ± 0.065
28. I32L  -0.059 ± 0.051
29. I32Y  -0.063 ± 0.088
30. G16R  -0.064 ± 0.053
31. I32V  -0.07 ± 0.041
32. Q14H  -0.071 ± 0.072
33. Q14K  -0.078 ± 0.079
34. A15G  -0.088 ± 0.05
35. R17G  -0.09 ± 0.052
36. R17M  -0.091 ± 0.074
37. E20C  -0.103 ± 0.079
38. Q14S  -0.106 ± 0.053
39. T22D  -0.117 ± 0.097
40. R17Q  -0.117 ± 0.088
41. G16I  -0.118 ± 0.093
42. Q14M  -0.121 ± 0.081
43. A15K  -0.125 ± 0.092
44. E30S  -0.125 ± 0.065
45. G16F  -0.136 ± 0.083
46. E20H  -0.138 ± 0.13
47. Q14V  -0.14 ± 0.049
48. A15S  -0.146 ± 0.052
49. I32M  -0.162 ± 0.055
50. R17T  -0.164 ± 0.079
51. Y13W  -0.167 ± 0.12
52. R17D  -0.173 ± 0.078
53. E30D  -0.177 ± 0.093
54. A15R  -0.178 ± 0.043
55. E20G  -0.179 ± 0.062
56. E30W  -0.185 ± 0.07
57. L21M  -0.198 ± 0.071
58. T22A  -0.2 ± 0.054
59. E30V  -0.202 ± 0.045
60. Q14T  -0.204 ± 0.069
61. E20A  -0.205 ± 0.064
62. Q14L  -0.208 ± 0.044
63. E30N  -0.208 ± 0.087
64. R17F  -0.214 ± 0.083
65. E30H  -0.218 ± 0.14
66. G16D  -0.233 ± 0.12
67. E30Y  -0.238 ± 0.099
68. Q14Y  -0.241 ± 0.084
69. G16W  -0.245 ± 0.067
70. R17V  -0.253 ± 0.06
71. I32T  -0.256 ± 0.067
72. T22C  -0.265 ± 0.14
73. A15Q  -0.27 ± 0.062
74. I32W  -0.276 ± 0.07
75. E30L  -0.277 ± 0.055
76. E20F  -0.284 ± 0.078
77. E27Q  -0.285 ± 0.088
78. E20T  -0.286 ± 0.097
79. E30K  -0.289 ± 0.099
80. E20D  -0.306 ± 0.11
81. E30C  -0.307 ± 0.15
82. I32Q  -0.307 ± 0.091
83. R17W  -0.346 ± 0.071
84. E20R  -0.35 ± 0.053
85. E30I  -0.353 ± 0.14
86. Q14C  -0.363 ± 0.081
87. E27K  -0.369 ± 0.12
88. A15P  -0.374 ± 0.078
89. R17L  -0.375 ± 0.053
90. Q14G  -0.377 ± 0.07
91. E20S  -0.385 ± 0.061
92. E20N  -0.39 ± 0.3
93. A15E  -0.438 ± 0.12
94. L21V  -0.456 ± 0.098
95. E27I  -0.468 ± 0.22
96. E30R  -0.474 ± 0.085
97. E20M  -0.475 ± 0.083
98. Q14W  -0.481 ± 0.11
99. E27T  -0.482 ± 0.09
100. I32E  -0.487 ± 0.078
101. L21I  -0.49 ± 0.12
102. T22H  -0.494 ± 0.16
103. T22E  -0.5 ± 0.11
104. L21S  -0.517 ± 0.093
105. A15C  -0.536 ± 0.097
106. E20Y  -0.548 ± 0.17
107. I32C  -0.557 ± 0.15
108. R17I  -0.557 ± 0.14
109. T22Q  -0.581 ± 0.12
110. A15V  -0.585 ± 0.093
111. L21F  -0.588 ± 0.16
112. G16P  -0.608 ± 0.2
113. E20V  -0.626 ± 0.097
114. Q14P  -0.636 ± 0.11
115. L21W  -0.648 ± 0.11
116. T22M  -0.652 ± 0.088
117. E27M  -0.653 ± 0.12
118. A15D  -0.661 ± 0.45
119. I32G  -0.674 ± 0.09
120. T22K  -0.686 ± 0.13
121. E27C  -0.699 ± 0.14
122. L21H  -0.701 ± 0.43
123. T22P  -0.704 ± 0.1
124. E27A  -0.711 ± 0.16
125. A15T  -0.714 ± 0.13
126. A15L  -0.718 ± 0.085
127. I32P  -0.726 ± 0.11
128. I32D  -0.73 ± 0.15
129. T22F  -0.742 ± 0.12
130. E20I  -0.746 ± 0.18
131. L21E  -0.751 ± 0.18
132. E30P  -0.753 ± 0.12
133. E27R  -0.762 ± 0.099
134. E20L  -0.769 ± 0.072
135. T22L  -0.778 ± 0.065
136. A15M  -0.79 ± 0.16
137. E27F  -0.795 ± 0.15
138. R17P  -0.797 ± 0.27
139. E30G  -0.801 ± 0.09
140. E20K  -0.809 ± 0.17
141. E27V  -0.81 ± 0.15
142. E27P  -0.811 ± 0.14
143. E27Y  -0.825 ± 0.29
144. I32A  -0.84 ± 0.1
145. T22Y  -0.844 ± 0.22
146. T22I  -0.847 ± 0.16
147. L21D  -0.851 ± 0.35
148. I32S  -0.863 ± 0.12
149. L21G  -0.87 ± 0.13
150. A15Y  -0.875 ± 0.25
151. A15H  -0.891 ± 0.33
152. T22V  -0.898 ± 0.1
153. E27W  -0.911 ± 0.16
154. L21N  -0.925 ± 0.26
155. L21Q  -0.927 ± 0.21
156. E20W  -0.934 ± 0.14
157. L21P  -0.947 ± 0.18
158. I32K  -0.948 ± 0.24
159. L21C  -0.951 ± 0.31
160. A15F  -0.956 ± 0.37
161. E27L  -0.961 ± 0.12
162. L21K  -0.989 ± 0.35
163. L21R  -0.99 ± 0.13
164. L21Y  -1 ± 0.23
165. E20P  -1.01 ± 0.17
166. E27S  -1.01 ± 0.14
167. L21T  -1.21 ± 0.47
